B1: APBB1IP (parent)
chain: SQVSMWDQRWQDHQPLLPITDVP

Variants of: B1
Experiment: protein stability index of a GFP-peptide fusion (GPS, HEK-293T) (PSI 1-6); higher = more stable
Settings: c terminus: native
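Note: lentivirally expressed fusions sorted by FACS into six bins by GFP to DsRed ratio, PSI derived from sequencing read proportions per bin multiplied by bin number.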

Protein stability index of substitutions, site by site:
P23: I 2.48 | L 2.06 | H 2.58 | N 1.81 | F 2.21 | Q 1.61 | W 2.17 | M 1.19
R9: M 3.13 | G 2.89 | S 2.4 | I 2.34 | L 2.61 | V 2.38
L16: I 2.55 | Y 3.06 | D 3.42 | T 2.92 | G 3.07 | A 2.95 | M 2.53
Q2: F 1.31 | N 2.6 | R 1.66 | E 3.32 | I 2.75 | Y 1.89
Q14: A 2.48 | M 2.15 | G 2.54 | Y 2.06 | E 3.31 | D 2.74 | P 2.74 | T 2.48
S1: D 2.25 | V 2.85 | G 2.03 | C 2.69 | I 1.56 | Y 4 | E 3.87 | Q 2.36
D21: T 2.88 | P 2.07 | M 1.62 | C 5.18 | Y 1.65 | F 1.44 | W 1.63
Q8: D 2.35 | P 2.13 | V 2.33 | S 2.28 | K 2.68 | E 2.6 | N 2.68 | R 1.78 | H 2.16 | Y 2.21
H13: T 2.94 | V 2.47 | Y 2.15 | C 2.24 | F 1.88 | A 3.06 | Q 2.43 | N 2.85
M5: N 2.76 | K 2.64 | T 2.73 | D 3.15 | V 1.65
W6: D 4.13 | L 3.09 | M 2.65 | P 3.18 | Q 3.48 | V 3.01 | C 3.04 | T 4.02
V22: Q 2.98 | F 2.72 | H 2.75 | C 2.06 | I 2.19
S4: C 1.95 | A 2.84 | M 2.57 | L 2.02 | N 2.92 | P 2.73 | K 2.15 | V 2.49 | F 1.98 | T 2.23 | Y 2.42
P15: G 3.45 | Q 3.25 | W 1.43 | N 2.77 | T 1.93 | Y 2.27 | E 2.77
L17: N 3.1 | P 2.84 | M 2.17 | Q 2.59 | E 3.68 | Y 2.19 | R 2.26
D12: V 3.1 | Y 3.2 | R 1.34 | W 1.24 | S 2.1 | F 1.8 | T 2.59
D7: I 1.04 | W 1.49 | E 2.85 | P 1.96 | K 1.46 | T 2.27 | L 1.72 | H 1.68 | S 1.61
P18: D 3.42 | H 2.38 | F 1.36 | M 1.71 | Y 2.07 | C 1.82 | R 2.29 | T 1.31 | L 1.41
W10: N 3.39 | P 3.68 | D 3.44 | H 3.14 | Q 3.29
V3: W 1.64 | D 2.81
T20: A 2.33 | C 2.34 | V 1.65 | F 2.58 | M 2.04 | P 2.7 | N 3.23 | D 2.67 | G 1.77
I19: Y 2.84 | C 2.15 | E 3.36 | W 1.36 | N 3.55 | H 3.78 | V 2.17 | F 2.79
Q11: T 2.29 | K 2.87 | C 1.92 | L 1.59 | F 1.68 | A 1.84 | D 2.38

From the supplement of paper PMC10567573
